According to doi:10.1101/2023.10.26.564242, “KIF1C activates and extends dynein movement through the FHF cargo adaptor” (bioRxiv, 2023):

T1: HOOK3 residues 451-718 (as in FH^451-718F) (human, UniProt Q86VS8 451-718)
T1 construct: The HOOK3 chain of m12, written alone for the row of two; also called HOOK3 C-terminal fragment; not shown: Strep II, N-terminal, cleaved
T1 sequence (looked up): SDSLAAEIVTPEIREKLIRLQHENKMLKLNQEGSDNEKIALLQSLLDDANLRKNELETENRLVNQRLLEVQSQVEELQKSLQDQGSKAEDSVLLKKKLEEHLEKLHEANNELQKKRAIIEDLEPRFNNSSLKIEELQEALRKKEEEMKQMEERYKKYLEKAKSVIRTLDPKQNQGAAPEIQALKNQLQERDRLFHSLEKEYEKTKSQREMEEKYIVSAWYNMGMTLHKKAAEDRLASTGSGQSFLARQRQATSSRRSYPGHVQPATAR

T2: HOOK3, full length (as in full-length FHF) (human, UniProt Q86VS8 1-718)
T2 construct: HOOK3, human, full length; gene codon optimised for Sf9; The HOOK3 chain of full-length FHF, written alone for the rows of two; not shown: Strep II, N-terminal, cleaved
T2 sequence (looked up): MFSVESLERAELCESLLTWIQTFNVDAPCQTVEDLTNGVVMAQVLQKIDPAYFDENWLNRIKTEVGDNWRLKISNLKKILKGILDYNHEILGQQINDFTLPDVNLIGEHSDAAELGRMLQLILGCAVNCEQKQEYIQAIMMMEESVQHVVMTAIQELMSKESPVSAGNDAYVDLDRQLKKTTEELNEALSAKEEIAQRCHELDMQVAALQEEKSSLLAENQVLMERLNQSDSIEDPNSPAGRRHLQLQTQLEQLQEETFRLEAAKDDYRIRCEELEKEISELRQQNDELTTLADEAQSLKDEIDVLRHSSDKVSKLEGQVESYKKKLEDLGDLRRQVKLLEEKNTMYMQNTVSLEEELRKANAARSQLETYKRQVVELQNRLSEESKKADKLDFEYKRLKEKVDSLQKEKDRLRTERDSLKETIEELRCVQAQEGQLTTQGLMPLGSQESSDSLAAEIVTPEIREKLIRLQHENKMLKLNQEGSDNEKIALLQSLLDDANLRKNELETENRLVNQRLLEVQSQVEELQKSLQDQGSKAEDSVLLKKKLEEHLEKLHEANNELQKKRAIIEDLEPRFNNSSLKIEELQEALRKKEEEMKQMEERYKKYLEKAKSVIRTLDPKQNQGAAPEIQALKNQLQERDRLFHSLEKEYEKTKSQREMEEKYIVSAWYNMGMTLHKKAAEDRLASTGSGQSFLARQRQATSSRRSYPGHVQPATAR

T3: full-length KIF1C-GFP (human, UniProt O43896 1-1103)
T3 construct: KIF1C, human, full length; also called KFL
T3 sequence (looked up): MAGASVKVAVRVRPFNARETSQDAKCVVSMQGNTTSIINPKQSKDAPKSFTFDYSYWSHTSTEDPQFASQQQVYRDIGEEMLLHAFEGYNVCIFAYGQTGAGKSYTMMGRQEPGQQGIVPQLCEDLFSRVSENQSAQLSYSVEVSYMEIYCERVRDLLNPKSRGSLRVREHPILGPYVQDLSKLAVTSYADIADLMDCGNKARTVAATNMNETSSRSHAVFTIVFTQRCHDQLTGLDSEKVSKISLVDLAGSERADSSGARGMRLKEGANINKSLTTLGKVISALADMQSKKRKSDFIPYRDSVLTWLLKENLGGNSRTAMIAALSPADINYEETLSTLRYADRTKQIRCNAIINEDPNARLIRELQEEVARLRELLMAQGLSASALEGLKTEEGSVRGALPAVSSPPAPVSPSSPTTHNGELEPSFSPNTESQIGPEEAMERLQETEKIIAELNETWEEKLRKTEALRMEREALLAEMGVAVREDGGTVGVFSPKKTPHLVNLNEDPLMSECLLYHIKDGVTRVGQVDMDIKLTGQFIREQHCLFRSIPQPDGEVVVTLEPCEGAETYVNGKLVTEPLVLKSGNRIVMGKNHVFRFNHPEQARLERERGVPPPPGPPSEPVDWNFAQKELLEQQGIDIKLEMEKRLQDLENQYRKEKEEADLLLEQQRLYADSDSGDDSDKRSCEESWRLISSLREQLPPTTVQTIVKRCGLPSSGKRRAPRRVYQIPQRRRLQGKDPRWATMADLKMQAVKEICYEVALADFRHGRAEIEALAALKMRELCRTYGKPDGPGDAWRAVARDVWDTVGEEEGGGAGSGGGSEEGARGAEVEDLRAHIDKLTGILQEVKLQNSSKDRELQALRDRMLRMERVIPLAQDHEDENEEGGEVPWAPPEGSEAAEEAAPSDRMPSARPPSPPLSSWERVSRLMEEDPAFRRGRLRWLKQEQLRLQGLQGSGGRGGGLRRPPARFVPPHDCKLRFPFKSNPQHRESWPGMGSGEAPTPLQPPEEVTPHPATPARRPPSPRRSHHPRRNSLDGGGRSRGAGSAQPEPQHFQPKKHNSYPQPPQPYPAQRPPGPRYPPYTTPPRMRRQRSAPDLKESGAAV

B1: GST-KIF1C stalk (residues 642-922) (domain or fragment, human, UniProt O43896 642-922, looked up)
chain: EMEKRLQDLENQYRKEKEEADLLLEQQRLYADSDSGDDSDKRSCEESWRLISSLREQLPPTTVQTIVKRCGLPSSGKRRAPRRVYQIPQRRRLQGKDPRWATMADLKMQAVKEICYEVALADFRHGRAEIEALAALKMRELCRTYGKPDGPGDAWRAVARDVWDTVGEEEGGGAGSGGGSEEGARGAEVEDLRAHIDKLTGILQEVKLQNSSKDRELQALRDRMLRMERVIPLAQDHEDENEEGGEVPWAPPEGSEAAEEAAPSDRMPSARPPSPPLSSWE
notes: also called KS; Ks; source: E. coli SoluBL21, purified (Ni-NTA, Superdex 200); not shown: GST, N-terminal, kept
B2: GST-KIF1C stalk 674-922 (domain or fragment, human, UniProt O43896 674-922, looked up)
chain: SDSGDDSDKRSCEESWRLISSLREQLPPTTVQTIVKRCGLPSSGKRRAPRRVYQIPQRRRLQGKDPRWATMADLKMQAVKEICYEVALADFRHGRAEIEALAALKMRELCRTYGKPDGPGDAWRAVARDVWDTVGEEEGGGAGSGGGSEEGARGAEVEDLRAHIDKLTGILQEVKLQNSSKDRELQALRDRMLRMERVIPLAQDHEDENEEGGEVPWAPPEGSEAAEEAAPSDRMPSARPPSPPLSSWE
notes: also called KIF1CS2; source: E. coli SoluBL21, purified (Ni-NTA, Superdex 200); not shown: GST, N-terminal, kept
B3: HOOK3 C-terminal fragment (residues 571-718) (domain or fragment, human, UniProt Q86VS8 571-718, looked up)
chain: DLEPRFNNSSLKIEELQEALRKKEEEMKQMEERYKKYLEKAKSVIRTLDPKQNQGAAPEIQALKNQLQERDRLFHSLEKEYEKTKSQREMEEKYIVSAWYNMGMTLHKKAAEDRLASTGSGQSFLARQRQATSSRRSYPGHVQPATAR
notes: The HOOK3 chain of the FHF cryo-EM construct, written alone for the rows of two; not shown: Strep II, N-terminal, cleaved
B4: HOOK3-SNAPf labelled with Alexa 647 (natural protein, human, UniProt Q86VS8 1-718, looked up)
chain: T2 sequence (looked up)
modifications: benzylguanine conjugated fluorophore (Alexa 647) on the SNAPf domain
notes: HOOK3, amplified from a human cDNA library, full length; pFastBacM13-8xHis-ZZ-LTLT-HOOK3-SNAPf; An untagged full-length HOOK3 from the same backbone was used in assays with Lis1; source: Sf9 (baculovirus), purified (Ni-NTA, IgG Sepharose, TEV cleavage); not shown: 8xHis, N-terminal, cleaved; ZZ, N-terminal, cleaved; SNAPf, C-terminal, kept

Legend:
[1] = molecular target: B4; assay: cell-based or functional assay
[2] = molecular target: T4, full-length FTS-HOOK3-FHIP1B (FHF) complex (human, UniProt Q9H8T0 1-292; Q86VS8 1-718; Q8N612 1-972); assay: cell-based or functional assay
T4 sequence (Q9H8T0 whole entry, chain 1 of 2): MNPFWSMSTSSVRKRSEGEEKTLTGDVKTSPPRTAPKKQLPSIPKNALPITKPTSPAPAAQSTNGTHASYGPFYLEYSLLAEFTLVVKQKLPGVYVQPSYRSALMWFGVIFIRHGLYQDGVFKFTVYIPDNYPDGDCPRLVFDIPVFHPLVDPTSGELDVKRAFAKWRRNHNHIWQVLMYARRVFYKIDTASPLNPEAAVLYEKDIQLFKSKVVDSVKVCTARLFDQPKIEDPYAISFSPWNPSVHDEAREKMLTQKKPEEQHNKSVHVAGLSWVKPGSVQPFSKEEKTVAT
T4 sequence (Q8N612 whole entry, chain 3 of 2): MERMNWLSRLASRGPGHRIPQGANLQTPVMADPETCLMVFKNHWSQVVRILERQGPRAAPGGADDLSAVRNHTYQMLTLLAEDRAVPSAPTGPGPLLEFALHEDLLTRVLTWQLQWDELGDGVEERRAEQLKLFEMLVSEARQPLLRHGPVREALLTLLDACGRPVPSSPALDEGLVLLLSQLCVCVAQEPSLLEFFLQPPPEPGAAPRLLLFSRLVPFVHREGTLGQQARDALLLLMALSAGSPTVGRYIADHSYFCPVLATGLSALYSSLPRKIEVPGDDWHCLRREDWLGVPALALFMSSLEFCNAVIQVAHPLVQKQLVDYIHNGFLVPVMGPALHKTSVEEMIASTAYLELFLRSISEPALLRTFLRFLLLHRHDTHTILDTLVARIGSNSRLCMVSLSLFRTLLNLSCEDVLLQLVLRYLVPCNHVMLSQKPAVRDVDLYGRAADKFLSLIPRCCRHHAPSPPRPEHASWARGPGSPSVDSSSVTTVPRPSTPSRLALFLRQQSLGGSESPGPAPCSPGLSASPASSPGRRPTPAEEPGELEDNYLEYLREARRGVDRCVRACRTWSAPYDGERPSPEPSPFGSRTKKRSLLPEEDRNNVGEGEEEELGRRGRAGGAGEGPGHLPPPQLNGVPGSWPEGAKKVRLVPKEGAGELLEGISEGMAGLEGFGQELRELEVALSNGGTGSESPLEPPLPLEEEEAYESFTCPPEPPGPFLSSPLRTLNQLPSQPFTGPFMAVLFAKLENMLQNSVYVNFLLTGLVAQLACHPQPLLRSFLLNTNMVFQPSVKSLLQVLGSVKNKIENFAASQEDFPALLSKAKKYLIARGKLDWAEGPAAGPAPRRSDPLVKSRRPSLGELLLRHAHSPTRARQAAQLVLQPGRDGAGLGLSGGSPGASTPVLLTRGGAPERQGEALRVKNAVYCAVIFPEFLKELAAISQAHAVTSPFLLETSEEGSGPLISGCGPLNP

[3] = molecular target: T4, full-length FTS-HOOK3-FHIP1B (FHF) …; assay: mass photometry; full-length FHF with KIF1C stalk, diluted to 100 nM in GF150; Refeyn TwoMP; conditions: both partners purified
[4] = molecular target: T1, HOOK3 residues 451-718 (as in …); assay: cryo-EM structure; FH^451-718F bound to GST-KIF1C stalk 674-922; low resolution at the KIF1C density; conditions: both partners purified
[5] = molecular target: T2, HOOK3, full length (as in full-length …); assay: cross-linking; cross-linking mass spectrometry with 10 mM EDC or 5 mM DSSO, room temperature, 60 minutes; full-length FHF or FH^571-718F bound to KIF1C stalk 674-922; conditions: both partners purified
[6] = molecular target: the molecule itself; assay: cryo-EM structure; FHF with full-length FTS and FHIP1B and HOOK3 571-718, 0.9 mg/ml with 0.1% CHAPSO or 0.005% Igepal; 3.2 Å reconstruction
GST-KIF1C stalk 674-922 = molecular target: B2; assay: cross-linking; cross-linking mass spectrometry with 10 mM EDC or 5 mM DSSO, room temperature, 60 minutes; full-length FHF or FH^571-718F bound to KIF1C stalk 674-922; conditions: both partners purified
full-length KIF1C-GFP = molecular target: T3, full-length KIF1C-GFP; assay: single-molecule TIRF co-movement on microtubules; TMR-dynein, dynactin, HOOK3-Alexa 647 and KIF1C-GFP mixed (200 nM dynein, 200 nM dynactin, 1600 nM adaptor, 180 nM KIF1C-GFP, ~75 mM KCl), diluted and imaged on taxol microtubules at 25 °C; controls with single components omitted; conditions: both partners purified

With B1 the “dynein microtubule recruitment (TMR-dynein landing rate, TIRF) with dynactin, HOOK3 and Lis1, with against without the KIF1C stalk construct (GST-KIF1C642-922-GFP in this assay)” value [1] was 2.6 fold, the “processive events of dynein-dynactin-FHF (TIRF), with KIF1C stalk against a DDFHF control” value [2] was ~3.7 fold and the “stoichiometry N” value [3] was 1 dimeric KIF1C stalk per FHF.

B2: binds [4]; binds [5].

B3: binds [6]; binds (GST-KIF1C stalk 674-922).

B4: binds (full-length KIF1C-GFP).
